Measurements: a protein production outcome set (Wang et al. 2014)

Experiment: label from the status in PepcDB records

MKKILASMAVASVAGGTVIGTAQAQTSIAPEDTQSKQASDVVTHENRVTVNVDALRVRTGPSTSNTILGLVSKEQSVPVVDETEDWYKIKYNNTEAYVNKEYATPNHIKVSTTTLRVRTGPSTSNSILGLVGEGEILQVTGEADGWYKIKYNNRDAYVSKDYVSINKSLVKSKKQKVQASRSYTVNVSSLRVRTGPSMSHPVVSVMNKGQVVQVVGEVQDWYRVKLNEGFAYINKDYVSRGTNNTANLPQSIQTESVQQNGTYIVDAAVLRVRTGPANYHPVIGGVLKGQSLQVVDIENGWYKIKYNNRTGYVSGEFVKFLKGSSTQEQTQTKEKLEQAQQPNHEQEKQEVAQQSTREQEKQEVAQQPTREQEKQEVVQQPTREQEKQEPAQNYYVKSSSLNVRSGAGMNYEVIGVVEPNQKIQVVGQQAGWYKINYNGKTGFVGMNYLSKTKVATVEEQPPSEVGTTNENTASGFIKPAAGSYTSGFEKRGGQMHYGLDIAASGTVSVSAAADGVVTRSYYSESYGNVVFISHNMNGQTYTTVYAHLNSRSVSAGQSVKQGQQIGFMGNTGQSEGQHLHFEVHKGEWNAQKSNAVNPKLYIK
protein production: failed

MTNDDSLKTYRAKRDFSVTPEPSGVASGKTAIKSTAKVLSFVVQKHWATRLHYDFRLELEGTMKSWAVPKGPSFDPNDKRMAVHVEDHPISYNSFEGEIPSGQYGAGKVIIWDKGTWIPLEDPHKGYRDGKLKFELRGLKLKGHWALVRMRKEENKKQEPWLLIKEKDEYVRSSREYSVVDEMPDSVAELDVPDVPQPSKASATSGSSSPKSSSIFRKGTKTTLPDNARKAELPRTLTPELATLVDEPPVDPEEWIYEIKFDGYRMLSRIEGGEVRLITRNGNDWSHKLPHLIKALGKLKLKSSWLDGEIAVLDENGIPDFQSLQNAFDSAHTESIIYYLFDVPFYEGYDLRDASLVERRALLQKLFEAHAPDEIRFSDVFDVSPAEILDSACRLGLEGVIGKRKTSVYVSRRSQDWIKLKCKNRQEFVIGGYTDPKGTRKGIGSLLLGYYDEDRKLRYAGNVGAGFSDKTLEDLRARLDRIALTDSPFVKANGLDKNAHWVEPRLIAEVSFGEWTRGGHIRHSVFHGLRSDKKADVIVREKPVHPAAKSAPASAIPKSLKVTNPDRVIDPSTGFTKVDLIRYYALVAPLMLPHLARRPVSLVRAPEGVSGELFFQKHWEKENMPGIEQLDPSLDPDHPPLLEVSTAEGLLSAVQMNVIEFHTWNATKNVIGKPDRIAFDLDPGSGVEWALIQESAQLVNVFLRELGLKSFLKTSGGKGLHIVVPIRRLRDWDTVKGFSQAIVQHLAKTIPTRFTAKSGPRNRVGKIFIDYLRNGFGATTVSAWSVRARPGLGVSVPLAWEELSSLKSSTRWSASNIHERLDKGNDPWADYAETNQSIVPAMKKLGFTPSSKA
protein production: failed

MSPVVIAVVGVVVLLVLLALVVVSRYKVAGPSEAFIVTGRRGKRSTDPETGRVFTDNSGQKVVVGGGVFVVPFVQQRFTLDLSSRHIPVAVRGAVTLRGVKANLEGVAIVKVGGTEDAIRAAAQRFLMQQDGIVGFTQEVLSGALRAIVGRMSVEDVIRDRAAFAGQVAEEAEASLSGQGLVLDAFQIQDITTEGSYLEDLGRPEAARAKQEADIAEAVARRAAEQARLKAEEEIAVAQRTLYLKQAEIKAETDQAEARANASGPLAEAARQQDILAEQEKVAERQAALKDRQLDTEVRKPADAQRYAAEQEAEARRVARVKQAEAERAAGIAAAQAEAERARLTGEGEKQRRSALADAVRLEGDAEAAAIGAKGAAEAEAMEKKADAFDRYGDAAVLQMLVEVLPQVVAKASEPLAAVDKMTVISTDGASRLTRTVADNVAQGMELLGSTTGVDLTSLLKGITAKEGITAKGEAGRATTENGKVEITDLEHHHHHH
protein production: not failed

TALIASGLVPQPFYFYGFLPRKKNEQKADLAKLARRHETVVLYESPFRVAKTLTLLATVCEGTRPIVACRELTKRYEEFARGTLAEMVTWAQDHQLKGEFVLLIGGNPDK
protein production: failed

MVIPFISGTLCQFQLSRWLITQAPALPCGPKLGAPTRQRRGCKVAQLWMYFLALAVVYLLPGPDMILLLQTGARQGKAQALATALGLALSRGCHVALAALGLAALFKAAPWTFDLVRLAGAAYLLWIGIQCLRANLLPNLEPGTAAATPLRWREAIQRGLLTNLLNPKALLFCSVLLPQFVDPQAGAVVPQFMTLGVLLVAVGGLFDCCYALAGAGLGRWMQRSPSAQRVQQWLFGSLLIGFALRLTFVQQA
protein production: failed

MFKVTFAFENGSEVEAFANAGDNLLEVARGANVAIDAPCSGNGACGKCRVQLKGGELDSKKTLHISDEEFEKGWRLACMSKICADVEVLVPDIASAYKSRMKVA
protein production: failed

MIKHYLFMAVSQVFFSFFLVLFFISSIVLLISIASVTLVIKVSFLDLVQLFLYSLPGTIFFILPITFFAACALGLSRLSYDHELLVFFSLGVSPKKMTKVFAPLSLLVSAILLVFSLILIPTSKSTYYGFLRQKKDKIDINIRAGEFGQKLGDWLVYVDKTKNNSYDNLVLFSNKSLSQESFILAQKGNINNQNGVFELNLYNGHAYFTQGDKMRKVDFEELHLRNKLKSFNSNDAAYLQGTDYLGYWKKAFGKNANKNQKRRFSQAILVSLFPLASVFLIPLFGIANPRFKTNWSYFYVLGAVGVYFLMVHVISTDLFLMTFFFPFIWAFASYLLFRKFILKRY
protein production: failed

MNHASDLILIGSTLLLALAAHAVGQKVHVPRVTLLLLLGALAGPDLLDLLPDNADQSFSLITQLTLAMVGFLLGERMSARDLRQGKEALIVSLAVTLLTAAAVILAVWAVTGNLPAALLLGGIATATAPAATLDVLREAGANGPLTRLVFQVVAIDDAWGAILFSVLLVAAGLLLGNGDLSGPTAMLHGLWEVAGSVLLGMVLGFPMAWLTGRLRPGEPMLLESAGFVFVAAGLASWFGLSYLLTCMTLGIVVANRARHHVRPFRSIEGISEPFLALFFFMAGYQLDWLALPTLGALGLAYVLARIGGRLAGGYLGGLLAGSAPETRQRIGACLMPQAGVALGLALVATERLPELGYILPLVIGATVVFELIGPPMTLLQLRKAGETGQGYQEEPDE
protein production: failed

MNPAPERTVMQHVRPLPYEADFTGFLSNTVAPRWMEALRIQRMRTCFPHFDSGAPQHLCIITETTVRYRKPVRYSDAIVGKAWLQSARYSRWIIAFSFAFEFSGLPAFEGRQAGTFIDPLEHHHHHH
protein production: failed

MNPIEFWFDFSSGYAFFAAQRIEALAAELGRTVLWRPYMLGAAFSVTGARGLSSTPLKRDYAQRDWARIARQRGLTFRPPADHPHVALAATRAFYWIEAQSPDAATAFAQRVFDLYFSDRLDTASPEAVSRLGPEVGLEPEALLAGIADPALKETVRKIGEDAVARGIFGSPFFLVDDEPFWGWDRMEMMAEWIRTGGW
protein production: not failed

MRLFIVQAMFTEYRPTHGYDEYFCREQSAPRADLEPLLSSLGAMGLAELNRSHASASNLLRRLGATFRLNGSGLHGGERILPFDPLPRLIHRQEWSVLERGLVQRLEAIDQFLADVYGPQRILNDGVIPREDVESSQGWRPQMQDIAVPLNRWCHISGLDLIRDGDGTWRVLEDNLRCPSGVAYFLENRRVMKRLFPSLFQGRTVQPIDDYPSHLLRTLQDLAPWSDAPRVVLLTPGVFNSAYFEHSYLAQQMGIALVEGRDLICEDGRVWMRSTAGREPVDVIYRRIDDDFLDPNVFRRDSMLGVPGLIDAMRSGRVAIANAPGSGVADDKLIYAYVPAMIRYYLNEEPIIDNVPTYLCSRDDDRRYVLEHLNELVVKSVAEAGGYGMLIGPHASSEEIESFAVKIKAHPRNFIAQPTLQLSTVPSLSEGELYPCHVDLRPYVLRGKSDWVSPGGLTRVALKRGSLVVNSSQGGGCKDTWVVSDSAVTAGNQELVPC
protein production: failed

MALFIPTRLVSALALVGVSGLMLGCGSSGGGSNGTTASSAKAASSTPVAISSVAASSTAAVAGNIKLNQLGFLPESAKWAVVPAGVAASFTVINATTNAEVFSGNLSVAATWSASEESVKLADFSSVKTPGDYLLRVEGVNDSYPFTIANDVYSALTAASIKAFYFNRNSAELLATHAGMFARPPGHPDTQVLVHVSAASAARPAGTIISSPKGWYDAGDYNKYIVNSGIATYSLLAAYEHFPDIFNGQNLNIPESGDALPDLLNETLWNLEWMLSMQDPNDGGVYHKLTNKNFDGTVMPHQATSERYVVQKTTAAALDFAAVMATASRVVAQYESQLPGMSAKMLAAAESAWNWAVANPAITYKQPDDIKTGEYGDGNLADEFFWAAAELYITSKKDAYYTAMKPTETVATVPSWGDVRSLGWISLAHHRDNLTAVADKQLIANRIDGLAANLQSVWATSAYRVTMQKNDFVWGSNSVALGQAMMLVQGYRLNGKREYLDAAQAMLDYVLGRNATDMSFVTGYGDKSTLHPHHRPSEADGIVEPIPGFIAGGPQPGQQDKSGCSVSYPSNIAAKSYLDNWCSYASNEIAINWNAPLVYVSAAIQALTPK
protein production: failed

MMFEGIRIARQMGHNIAIVSPRVDVIIEISHRIKDAFIDEHIDVLHQSSRQQYNGHFVIATIHQLLRFKQHFDTVFVDEVDAFPLSMDPQLSNAIQLASKSNHSHIFMTATPPRHFLKQFPPEKIIKLPARFHRSPLPIPKFKYFKLKSTRKQNLLLNIFRYQINQQRFTLVFINNIEIMNKMYQQYKMDIPDLICVHSEDDLRFEKIEALRRGQHKIVFTTTILERGFTMTHLDVVVVDAGSFQQEALIQIAGRVGRKQQSPSGLVLFLHEGVTLSMILAKRNIISMNRLAIKRGWIDA
protein production: failed

MNCRKTALLKTGRVARLVLCSAMLGAAIPTMALAIGGASGAHVDYQVQGKLGEVIMNPYDIAPLTAIIKNGGYVLKDVTVRIVPKKDGQEIKYQVANKHLLTHGGIPVFGMYPDYVNTVEVEYSRLYNGKWEQAKESYTLYTPPVYTEPNATKTQKAALFSGADVKKVDKKFSDRLYFVNNFLHKAGKGTRAVWNNPTGGALEWNYYPQNFIVDTKGEVRWYMNANPIYDLKSIYNAGVMMGFKQNNDGAMSWGFGQRYVKYDIMGKEVFNRELPAGYNDFSHSMDNSPNGNYFLRVGSSNLKRADGKNVRTVRDVIIEVDPSSGLVQDEWRLFDILDPYRDVNFKVLDQGAVCLNIDASKAGHTMSAEDLAKQDANDKFGDIVGVGPGRNWAHVNSVDHDAEDDSIIISSRHQSAVIKIGRDKQIKWIMGSPEGWKKEYQGKLLTPVDSKGNKIECEAGGSKCPGYENDEGGFDWTWTQHTAFKIDSKSKGDIIYVSVFDNGDSRGMEQPALPSMKYSRAVIYKIDQKKMTVEQIWEFGKERGNGWYSPVTSLTEYQTDKDSVFVYSATAGADFDINTGAFKTDPNPYIMEFNYGSKEPAVEIQLKDTTGYQAMPFSVDKAFTK
protein production: failed

MRRILGPVLAAHYLAAFTALGMPLFLPQVLAELAPSAAVGWSGVLYVLPTLCTALTASTWGRWADRNGRKRSLLRAQLGLALGFAIAGFAPSLTWLVIGLIVQGTCGGSLAAANAYLASQPQAGPLARALDWTQYSARLAMVSAPALLGLALALGPAQSLYRALALLPLIAFALTWRLPADQPAAREPAAGTPATSLKHAASSPASPRTVAATSWPALLLAQFLFCFAMVVTFPYFIPYALARGAGHDALAGLLYSLPHLVYLVVLPWWRRGDGEAWLVPGLALFAAACVWQALLHDALALAAARLLFGFGMLFGLRGLNRSLAHIASGHSAGRLFGRFDACGKWAGVFAGAAAGALAQASGPATPFLAAALAAAAAALTVLVRFPSRRTADVAAHDA
protein production: failed

MADKVYEATAEAKGYNEEGVPIVLTVKAIKKDGKVVVTDIVAKHQETDKIGAVAIEKLIEEVKTKQNYNKLDSVAGATSTSAGFRRAIRNAVKDIEKQNLEHHHHHH
protein production: not failed

PVEEVMPVLEEKERSASYKPVFVTEITDDLHFYVQDVETGTQFQKLMENMRNDIASHPPVEGSYAPRRGEFCIAKFVDGEWYRARVEKVESPAKIHVFYIDYGNREVLPSTRLGTLSPAFSTRVLPAQATEYAFAFIQVPQDDDARTDAVDSVVRDIQNTQCLLNVEHLSAGCPHVTLQFADSKGDVGLGLVKEGLVMVEVRKEKQFQKVITEYLNAQESAKSARLNLWRYGDFRADDADEFGYSR
protein production: not failed
